Measured values taken from publication PMC8191795 (Nucleic Acids Research, 2020).
Several values for one entry are separate records, joined by “and”; a condition that tells them apart may be missing. Identical values can stand only once. Like-named read-outs stand apart in the source and are kept apart here.

T1: SmcR N55I (Vibrio vulnificus, UniProt Q9L8G8 1-205, N55I)
T1 sequence: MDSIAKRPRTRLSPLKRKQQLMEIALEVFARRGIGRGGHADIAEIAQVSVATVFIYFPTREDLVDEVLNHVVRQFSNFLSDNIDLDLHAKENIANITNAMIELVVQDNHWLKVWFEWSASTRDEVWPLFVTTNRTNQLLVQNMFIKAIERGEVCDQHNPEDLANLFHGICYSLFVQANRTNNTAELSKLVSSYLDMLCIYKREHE

T2: SmcR WT (Vibrio vulnificus, UniProt Q9L8G8 1-205)
T2 sequence: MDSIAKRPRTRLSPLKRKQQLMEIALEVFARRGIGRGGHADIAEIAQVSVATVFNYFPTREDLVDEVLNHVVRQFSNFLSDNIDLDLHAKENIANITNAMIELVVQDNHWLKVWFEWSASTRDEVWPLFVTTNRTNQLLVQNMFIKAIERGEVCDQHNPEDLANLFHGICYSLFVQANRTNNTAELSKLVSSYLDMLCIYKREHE

T3: SmcR L139R (Vibrio vulnificus, UniProt Q9L8G8 1-205, L139R)
T3 sequence: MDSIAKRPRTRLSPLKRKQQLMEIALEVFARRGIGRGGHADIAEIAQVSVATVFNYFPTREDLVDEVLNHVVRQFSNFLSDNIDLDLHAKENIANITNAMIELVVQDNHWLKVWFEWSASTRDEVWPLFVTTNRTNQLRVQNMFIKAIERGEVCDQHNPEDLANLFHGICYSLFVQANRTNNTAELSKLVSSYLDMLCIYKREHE

T4: SmcR S76A (Vibrio vulnificus, UniProt Q9L8G8 1-205, S76A)
T4 sequence: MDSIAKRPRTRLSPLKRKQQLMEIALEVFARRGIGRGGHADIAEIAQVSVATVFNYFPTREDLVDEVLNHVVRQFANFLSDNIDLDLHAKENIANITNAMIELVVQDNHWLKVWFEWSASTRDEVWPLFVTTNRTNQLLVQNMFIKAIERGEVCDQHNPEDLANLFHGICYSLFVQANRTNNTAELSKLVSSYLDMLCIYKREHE

T5: SmcR N142D (Vibrio vulnificus, UniProt Q9L8G8 1-205, N142D)
T5 sequence: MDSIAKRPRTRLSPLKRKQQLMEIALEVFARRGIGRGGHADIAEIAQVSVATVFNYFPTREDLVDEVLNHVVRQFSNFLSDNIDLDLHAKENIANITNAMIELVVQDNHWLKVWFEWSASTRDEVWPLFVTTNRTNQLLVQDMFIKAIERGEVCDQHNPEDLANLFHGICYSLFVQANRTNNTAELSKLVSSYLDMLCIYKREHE


Legend:
SmcR N55I = target: T1, SmcR N55I; assay: EMSA
SmcR WT = target: T2, SmcR WT; assay: EMSA
[1] = target: his-tagged V. harveyi RNAP alpha subunit (Vibrio harveyi, UniProt A0A0B4IMU9 1-330); assay: BLI
SAXS [2] = target: the molecule itself; assay: SAXS
SAXS [3] = target: the molecule itself; assay: SAXS; remark: listed apart in the source
SmcR L139R = target: T3, SmcR L139R; assay: EMSA
SmcR S76A = target: T4, SmcR S76A; assay: EMSA
SmcR N142D = target: T5, SmcR N142D; assay: EMSA

Row | Binder | Kd (SmcR N55I) [nM] | Kd (SmcR WT) [nM] | other results
1 | PluxC site E T4A (JDN44/JDN45) (dsDNA) DNA 1: TCTAATTATAGTTTGATTTATTAATAATTAGT DNA 2: ACTAATTATTAATAAATCAAACTATAATTAGA | 13.4 | 1.53 | 
2 | PluxC site E T4A,A17T (JCV1107/JCV1108) (dsDNA) DNA 1: TCTAATTATTGTTTGATTTATTAATAATTAGT DNA 2: ACTAATTATTAATAAATCAAACAATAATTAGA | 1.91 | 2.04 | 
3 | PluxC site E A17T (JDN46/JDN47) (dsDNA) DNA 1: TCTAATTATTGTTTGATTTATTTATAATTAGT DNA 2: ACTAATTATAAATAAATCAAACAATAATTAGA | 44.6 | 2.71 | 
4 | SmcR wild-type, untagged (Vibrio vulnificus) (natural protein) MDSIAKRPRTRLSPLKRKQQLMEIALEVFARRGIGRGGHADIAEIAQVSVATVFNYFPTREDLVDEVLNHVVRQFSNFLSDNIDLDLHAKENIANITNAMIELVVQDNHWLKVWFEWSASTRDEVWPLFVTTNRTNQLLVQNMFIKAIERGEVCDQHNPEDLANLFHGICYSLFVQANRTNNTAELSKLVSSYLDMLCIYKREHE |  |  | Kd [1]: 142 nM
5 | SmcR wild-type, 6Xhis-tagged (Vibrio vulnificus) (natural protein) MDSIAKRPRTRLSPLKRKQQLMEIALEVFARRGIGRGGHADIAEIAQVSVATVFNYFPTREDLVDEVLNHVVRQFSNFLSDNIDLDLHAKENIANITNAMIELVVQDNHWLKVWFEWSASTRDEVWPLFVTTNRTNQLLVQNMFIKAIERGEVCDQHNPEDLANLFHGICYSLFVQANRTNNTAELSKLVSSYLDMLCIYKREHE |  |  | stoichiometry N (SAXS [2]): 2 and 4
6 | SmcR N55I, untagged (Vibrio vulnificus) (natural protein) MDSIAKRPRTRLSPLKRKQQLMEIALEVFARRGIGRGGHADIAEIAQVSVATVFIYFPTREDLVDEVLNHVVRQFSNFLSDNIDLDLHAKENIANITNAMIELVVQDNHWLKVWFEWSASTRDEVWPLFVTTNRTNQLLVQNMFIKAIERGEVCDQHNPEDLANLFHGICYSLFVQANRTNNTAELSKLVSSYLDMLCIYKREHE |  |  | Kd [1]: 160 nM; stoichiometry N (SAXS [3]): 2 and 4
7 | PvvpM (AB316/AB317) (dsDNA) DNA 1: ACACTTATCTTTAGTGACAAACTCATAAATAGCAAGTTCTCACACGGTC DNA 2: GACCGTGTGAGAACTTGCTATTTATGAGTTTGTCACTAAAGATAAGTGT | 0.266 | 0.143 | Kd (SmcR L139R): 0.322 nM; Kd (SmcR S76A): 0.167 nM; Kd (SmcR N142D): 0.568 nM
8 | PvvpE (AB324/AB325) (dsDNA) DNA 1: ATAAATCAAATTTGTAACTTTATTTCTGAGATGACTGTCCCATTTATCTTATTGATAAATCTGCGTAAAAAAGAAAAAGCACAATTTTATTACTAGTGTTT DNA 2: AAACACTAGTAATAAAATTGTGCTTTTTCTTTTTTACGCAGATTTATCAATAAGATAAATGGGACAGTCATCTCAGAAATAAAGTTACAAATTTGATTTAT | 142 | 2.18 | Kd (SmcR L139R): 3.53 nM; Kd (SmcR S76A): 0.363 nM; Kd (SmcR N142D): 6.68 nM
